Source: the supplement of paper PMC10126150
± gives the standard deviation of the averaged measurements.

Test system: ATP
Assay: switch fluorescence ratio, 500 uM ATP over buffer (Cy3 cluster intensity, sum of 5 cycles each) (fold (ratio)); higher = stronger signal-on switching upon ATP binding; sequences stand for … in TCGTCGGCAGCGTCAGATGTGTATAAGAGACAGTTTTTTTTTTTTTTTTTTTTTTTTT…TC
Conditions: aptamer strand: ATP DNA aptamer (quencher-CACCTGGGGGAGTATTGCGGAGGAAGG + anchor), 100 nM annealed; ATP concentration: 500 uM
In short: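 Values give the fluorescence ratio for each switch-domain sequence, averaged from per-cluster ratios of summed target-cycle to summed buffer-cycle Cy3 intensity. The Cy3-labelled switching-strand clusters sat on a modified Illumina MiSeq flow-cell, were annealed to 100 nM quencher-labelled ATP aptamer, and were imaged in selection buffer, then after 15 min with 500 uM ATP at 22 °C. Five cycles ran with NaOH stripping and re-annealing between them, and clusters outside 100-1000 RFU were excluded.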
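Also: ATP exposure 15 min at 22 °C before imaging.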

TGAATTTGTA
switch fluorescence ratio: 0.993 ± 0.03

TGACAAGGGG
switch fluorescence ratio: 1.05 ± 0.044

TGACACATGA
switch fluorescence ratio: 1.02 ± 0.013

TGACACTTGG
switch fluorescence ratio: 0.99 ± 0.011

TGACAGTCAG
switch fluorescence ratio: 0.968 ± 0.02

TGACATAATT
switch fluorescence ratio: 1.01 ± 0.046

TGACATGGGG
switch fluorescence ratio: 0.9827 ± 0.0051

TGACCACCAG
switch fluorescence ratio: 0.993 ± 0.019

TGACCGAATT
switch fluorescence ratio: 1.03 ± 0.054

TGACCGAGCG
switch fluorescence ratio: 0.9603 ± 0.0065

TGACCGATCA
switch fluorescence ratio: 1 ± 0.021

TGACCGGCTT
switch fluorescence ratio: 1.05 ± 0.013

TGACGAACTC
switch fluorescence ratio: 1.32 ± 0.045

TGACGAGCGG
switch fluorescence ratio: 1.04 ± 0.061

TGACGCAGGA
switch fluorescence ratio: 2.53 ± 1.8

TGACGCCTGA
switch fluorescence ratio: 1.02 ± 0.022

TGACGGATGG
switch fluorescence ratio: 1.03 ± 0.051

TGACGGTGGC
switch fluorescence ratio: 1.02 ± 0.017

TGACTAATAA
switch fluorescence ratio: 1.02 ± 0.013

TGACTAGGGA
switch fluorescence ratio: 0.992 ± 0.021

TGACTCGAGT
switch fluorescence ratio: 1.01 ± 0.012

TGACTGCGGG
switch fluorescence ratio: 1.01 ± 0.015

TGACTGGCTT
switch fluorescence ratio: 1.014 ± 0.01

TGACTTATGT
switch fluorescence ratio: 1.014 ± 0.0037

TGACTTTTGT
switch fluorescence ratio: 0.98 ± 0.0015

TGAGAAGACT
switch fluorescence ratio: 1.03 ± 0.033

TGAGACGAAA
switch fluorescence ratio: 1.07 ± 0.052

TGAGAGGGAC
switch fluorescence ratio: 1.05 ± 0.013

TGAGAGGGGG
switch fluorescence ratio: 1 ± 0.083

TGAGAGGTGG
switch fluorescence ratio: 1 ± 0.036

TGAGAGTTCA
switch fluorescence ratio: 1.006 ± 0.0032

TGAGATCACT
switch fluorescence ratio: 1 ± 0.013

TGAGATCTGG
switch fluorescence ratio: 0.982 ± 0.035

TGAGATTATT
switch fluorescence ratio: 1.01 ± 0.038

TGAGATTCAG
switch fluorescence ratio: 0.985 ± 0.02

TGAGATTGTG
switch fluorescence ratio: 1.02 ± 0.037

TGAGATTGTT
switch fluorescence ratio: 1.01 ± 0.028

TGAGCAAGGT
switch fluorescence ratio: 1.203 ± 0.0039

TGAGCCCCGG
switch fluorescence ratio: 1.03 ± 0.028

TGAGCCCGCT
switch fluorescence ratio: 1 ± 0.016

TGAGCCCGGG
switch fluorescence ratio: 0.97 ± 0.013

TGAGCGACTT
switch fluorescence ratio: 1.005 ± 0.0095

TGAGCGGTAG
switch fluorescence ratio: 1.028 ± 0.004

TGAGCGTGAG
switch fluorescence ratio: 1.01 ± 0.015

TGAGCTGATG
switch fluorescence ratio: 0.986 ± 0.032

TGAGGAAGGT
switch fluorescence ratio: 1.016 ± 0.009

TGAGGAATTT
switch fluorescence ratio: 1 ± 0.029

TGAGGACAGG
switch fluorescence ratio: 1.06 ± 0.054

TGAGGAGAAT
switch fluorescence ratio: 0.996 ± 0.028

TGAGGAGGGG
switch fluorescence ratio: 0.989 ± 0.048

TGAGGATCCA
switch fluorescence ratio: 0.985 ± 0.013

TGAGGCAGCT
switch fluorescence ratio: 1.06 ± 0.11

TGAGGCAGGA
switch fluorescence ratio: 1.04 ± 0.042

TGAGGGAAGA
switch fluorescence ratio: 1.05 ± 0.051

TGAGGGACGC
switch fluorescence ratio: 0.996 ± 0.021

TGAGGGATTC
switch fluorescence ratio: 1 ± 0.047

TGAGGGCAGG
switch fluorescence ratio: 1.023 ± 0.007

TGAGGGCGGC
switch fluorescence ratio: 0.962 ± 0.12

TGAGGGCTAG
switch fluorescence ratio: 1 ± 0.015

TGAGGGCTTT
switch fluorescence ratio: 1.013 ± 0.0023

TGAGGGGATT
switch fluorescence ratio: 1 ± 0.022

TGAGGGGCTA
switch fluorescence ratio: 1.01 ± 0.049

TGAGGGGGAA
switch fluorescence ratio: 1.03 ± 0.033

TGAGGGGGGC
switch fluorescence ratio: 1.01 ± 0.044

TGAGGGGGTA
switch fluorescence ratio: 0.995 ± 0.033

TGAGGGGTGC
switch fluorescence ratio: 1.04 ± 0.029

TGAGGGTGGG
switch fluorescence ratio: 1.01 ± 0.058

TGAGGGTTTG
switch fluorescence ratio: 1.02 ± 0.044

TGAGGTCCCA
switch fluorescence ratio: 1.01 ± 0.014

TGAGGTGCGA
switch fluorescence ratio: 1.01 ± 0.023

TGAGGTTAGG
switch fluorescence ratio: 1 ± 0.012

TGAGGTTTGG
switch fluorescence ratio: 1.02 ± 0.028

TGAGTAAGGG
switch fluorescence ratio: 0.991 ± 0.029

TGAGTAAGTA
switch fluorescence ratio: 0.995 ± 0.048

TGAGTAGAGG
switch fluorescence ratio: 1 ± 0.02

TGAGTAGCTC
switch fluorescence ratio: 0.9715 ± 0.0037

TGAGTAGGGC
switch fluorescence ratio: 0.948 ± 0.041

TGAGTAGGGT
switch fluorescence ratio: 0.992 ± 0.011

TGAGTATTTG
switch fluorescence ratio: 0.98 ± 0.025

TGAGTCAATT
switch fluorescence ratio: 0.99 ± 0.032

TGAGTCTCTG
switch fluorescence ratio: 0.998 ± 0.012

TGAGTCTGCG
switch fluorescence ratio: 1.02 ± 0.12

TGAGTCTTCG
switch fluorescence ratio: 1.03 ± 0.017

TGAGTGACTT
switch fluorescence ratio: 0.974 ± 0.012

TGAGTGGGG
switch fluorescence ratio: 0.975 ± 0.05

TGAGTGGGGG
switch fluorescence ratio: 0.982 ± 0.014

TGAGTGTTAC
switch fluorescence ratio: 1 ± 0.028

TGAGTTGTGT
switch fluorescence ratio: 1.03 ± 0.075

TGATAAAACG
switch fluorescence ratio: 0.992 ± 0.041

TGATAAACGG
switch fluorescence ratio: 1 ± 0.019

TGATAAGTAC
switch fluorescence ratio: 1.38 ± 0.065

TGATAATAGT
switch fluorescence ratio: 0.989 ± 0.021

TGATAATTAC
switch fluorescence ratio: 1.19 ± 0.27

TGATAATTTT
switch fluorescence ratio: 1 ± 0.039

TGATACACGT
switch fluorescence ratio: 1 ± 0.013

TGATACCGTG
switch fluorescence ratio: 1.01 ± 0.017

TGATACGGAG
switch fluorescence ratio: 0.983 ± 0.06

TGATACTCTG
switch fluorescence ratio: 1.03 ± 0.029

TGATAGATGT
switch fluorescence ratio: 0.983 ± 0.026

TGATAGGGTT
switch fluorescence ratio: 0.985 ± 0.014

TGATATTT
switch fluorescence ratio: 0.991 ± 0.022

TGATATTTGC
switch fluorescence ratio: 0.969 ± 0.033

TGATCCTATG
switch fluorescence ratio: 0.992 ± 0.016

TGATCGGCTA
switch fluorescence ratio: 1.01 ± 0.049

TGATCGTCTG
switch fluorescence ratio: 1.031 ± 0.0017

TGATGAAGAT
switch fluorescence ratio: 0.9817 ± 0.0071

TGATGAATGA
switch fluorescence ratio: 1.001 ± 0.0021

TGATGCAAGT
switch fluorescence ratio: 1.09 ± 0.032

TGATGCATCG
switch fluorescence ratio: 1 ± 0.034

TGATGGAAAA
switch fluorescence ratio: 0.998 ± 0.023

TGATGGATAT
switch fluorescence ratio: 0.9921 ± 0.0021

TGATGGGGGG
switch fluorescence ratio: 0.994 ± 0.021

TGATGGGGTT
switch fluorescence ratio: 0.9969 ± 0.0078

TGATGGGTAG
switch fluorescence ratio: 0.998 ± 0.028

TGATGGTGGC
switch fluorescence ratio: 0.997 ± 0.017

TGATGTGGCG
switch fluorescence ratio: 0.994 ± 0.041

TGATGTGGTG
switch fluorescence ratio: 0.976 ± 0.018

TGATGTTATG
switch fluorescence ratio: 0.9911 ± 0.0025

TGATTAAAGG
switch fluorescence ratio: 1.02 ± 0.025

TGATTAAATA
switch fluorescence ratio: 0.994 ± 0.028

TGATTACTAG
switch fluorescence ratio: 0.974 ± 0.017

TGATTCCATT
switch fluorescence ratio: 0.9991 ± 0.0052

TGATTCTAAG
switch fluorescence ratio: 0.977 ± 0.019

TGATTCTTCG
switch fluorescence ratio: 1.01 ± 0.023

TGATTCTTGA
switch fluorescence ratio: 1.03 ± 0.064

TGATTGAGCC
switch fluorescence ratio: 0.998 ± 0.047

TGATTGATTG
switch fluorescence ratio: 1.03 ± 0.066

TGATTGCAGC
switch fluorescence ratio: 0.994 ± 0.028

TGATTGCCCT
switch fluorescence ratio: 0.9925 ± 0.0044

TGATTGGGAA
switch fluorescence ratio: 0.995 ± 0.021

TGATTGGGAC
switch fluorescence ratio: 0.9673 ± 0.0074

TGATTGTATT
switch fluorescence ratio: 0.979 ± 0.015

TGATTGTTAG
switch fluorescence ratio: 0.988 ± 0.023

TGATTTAATT
switch fluorescence ratio: 0.97 ± 0.036

TGATTTAGGA
switch fluorescence ratio: 1.01 ± 0.036

TGATTTATTG
switch fluorescence ratio: 0.985 ± 0.03

TGATTTATTT
switch fluorescence ratio: 0.9927 ± 0.0048

TGATTTCACG
switch fluorescence ratio: 1.02 ± 0.011

TGATTTCTTT
switch fluorescence ratio: 0.997 ± 0.0018

TGATTTGACA
switch fluorescence ratio: 1.01 ± 0.013

TGATTTGGGT
switch fluorescence ratio: 1.01 ± 0.021

TGATTTTACG
switch fluorescence ratio: 0.983 ± 0.019

TGATTTTGGT
switch fluorescence ratio: 1.01 ± 0.025

TGCAAAAGGG
switch fluorescence ratio: 1.024 ± 0.0074

TGCAAAATAA
switch fluorescence ratio: 1.17 ± 0.24

TGCAAAATTG
switch fluorescence ratio: 0.995 ± 0.024

TGCAAAGGTG
switch fluorescence ratio: 1.34 ± 0.094

TGCAAATTCC
switch fluorescence ratio: 1.11 ± 0.021

TGCAACACAT
switch fluorescence ratio: 1.03 ± 0.029

TGCAACGTTT
switch fluorescence ratio: 0.971 ± 0.024

TGCAAGAAGT
switch fluorescence ratio: 1.022 ± 0.0069

TGCAAGGGTT
switch fluorescence ratio: 1.12 ± 0.088

TGCAAGGTTA
switch fluorescence ratio: 1.02 ± 0.051

TGCAAGGTTT
switch fluorescence ratio: 1.05 ± 0.1

TGCAAGTGGC
switch fluorescence ratio: 1.09 ± 0.15

TGCAATAATA
switch fluorescence ratio: 1.06 ± 0.091

TGCAATGTTT
switch fluorescence ratio: 1.38 ± 0.52

TGCACAGGCT
switch fluorescence ratio: 1.119 ± 0.0062

TGCACATTCC
switch fluorescence ratio: 1.7 ± 0.15

TGCACCCGTA
switch fluorescence ratio: 1.054 ± 0.0013

TGCACGCAGC
switch fluorescence ratio: 1.25 ± 0.09

TGCACGGTTG
switch fluorescence ratio: 1.002 ± 0.0026

TGCACTCTCA
switch fluorescence ratio: 1.04 ± 0.032

TGCAGAAGCC
switch fluorescence ratio: 1.02 ± 0.026

TGCAGACAGA
switch fluorescence ratio: 1.02 ± 0.055

TGCAGCTGCG
switch fluorescence ratio: 0.974 ± 0.049

TGCAGGAGAA
switch fluorescence ratio: 0.9718 ± 0.0087

TGCAGGAGCT
switch fluorescence ratio: 1.01 ± 0.032

TGCAGGATGC
switch fluorescence ratio: 0.971 ± 0.027

TGCAGGGAGT
switch fluorescence ratio: 1.04 ± 0.037

TGCAGGGCAG
switch fluorescence ratio: 0.98885 ± 0.00071

TGCAGGGGCT
switch fluorescence ratio: 1.15 ± 0.22

TGCAGGTGGC
switch fluorescence ratio: 1.13 ± 0.035

TGCAGGTTTT
switch fluorescence ratio: 1.01 ± 0.054

TGCAGTAGCG
switch fluorescence ratio: 0.9936 ± 0.0051

TGCAGTGCGT
switch fluorescence ratio: 1.0018 ± 9.8e-05

TGCAGTGGGA
switch fluorescence ratio: 1.02 ± 0.016

TGCAGTTTGT
switch fluorescence ratio: 0.9929 ± 0.0065

TGCATCAGCT
switch fluorescence ratio: 1.03 ± 0.046

TGCATGGCTG
switch fluorescence ratio: 0.99 ± 0.01

TGCATGGGGT
switch fluorescence ratio: 1.01 ± 0.022

TGCATTACGT
switch fluorescence ratio: 1.35 ± 0.015

TGCATTATTA
switch fluorescence ratio: 0.995 ± 0.049

TGCATTGCTG
switch fluorescence ratio: 1.01 ± 0.038

TGCATTTCAG
switch fluorescence ratio: 1 ± 0.025

TGCCAATGTG
switch fluorescence ratio: 0.989 ± 0.013

TGCCACGTAA
switch fluorescence ratio: 1.3 ± 0.065

TGCCACTGGG
switch fluorescence ratio: 1.06 ± 0.019

TGCCAGTTGT
switch fluorescence ratio: 1.006 ± 0.0076

TGCCGAGTGC
switch fluorescence ratio: 1.046 ± 0.0083

TGCCGCTTAA
switch fluorescence ratio: 1.193 ± 0.0089

TGCCGGAATA
switch fluorescence ratio: 1.38 ± 0.041

TGCCGGGCTT
switch fluorescence ratio: 1.01 ± 0.042

TGCCGGGGAT
switch fluorescence ratio: 1.01 ± 0.015

TGCCGGGGGT
switch fluorescence ratio: 1.03 ± 0.088

TGCCGGGGTC
switch fluorescence ratio: 1 ± 0.048

TGCCGGTTGC
switch fluorescence ratio: 0.99 ± 0.12

TGCCTAATTG
switch fluorescence ratio: 0.977 ± 0.026

TGCCTACGGG
switch fluorescence ratio: 1.02 ± 0.028

TGCCTCGGCG
switch fluorescence ratio: 1.0022 ± 0.00021
